According to patent US11447809B2, “Evolution of tRNA synthetases” (President and Fellows of Harvard College, priority 2017, dated 2022):
Like-named read-outs stand apart in the source and are kept apart here.

Tests used:
tRNA^Pyl = assay: Aminoacylation assay of chPylRS variants (32P-labeled tRNA, nuclease P1/TLC); format: biochemical
Procedure: (§1) The genes of chPylRS variants and MjTyrRS variants were cloned into pET15a and transformed into BL21(DE3) (New England Biolabs) cells for expression. Cells were grown in 500 mL of LB media supplemented with 100 m/mL ampicillin at 37° C. to an A600 of 0.6-0.8, and protein expression was induced by addition of 0.5 mM IPTG (chPylRS variants) or 1 mM IPTG (MjTyrRS variants). Cells were incubated at 30° C. for an additional 6 h (chPylRS variants) or 4 h (MjTyrRS variants) and harvested by centrifugation at 5,000 g for 10 min at 4° C. The cell pellet was resuspended in 15 mL of lysis buffer (50 mM Tris (pH 7.5), 300 mM NaCl, 20 mM imidazole), and cells were lysed by sonication. The crude extract was centrifuged at 20,000 g for 30 min at 4° C. The soluble fraction was loaded onto a column containing 2 mL of Ni-NTA resin (Qiagen) previously equilibrated with 20 mL of lysis buffer. The column was washed with 20 mL of lysis buffer. The bound protein was then eluted with 2 mL of 50 mM Tris (pH 7.5), 300 mM NaCl, 300 mM imidazole. The purified protein was dialyzed with 50 mM HEPES-KOH (pH 7.5), 50 mM KCl, 1 mM DTT and 50% glycerol and stored at −80° C. for further studies.
(§2) Template plasmid containing the tRNA^Pyl or tRNACUA^Tyr/Opt gene was purified with the plasmid maxi kit (Qiagen). The plasmid containing tRNA^Pyl (100 μg) was digested with BstNI (New England Biolabs). The tRNACUA^Tyr/Opt gene was amplified by PCR. The BstNI digested template DNA or PCR product was purified by phenol chloroform extraction, followed by ethanol precipitation and dissolved in double distilled water. A His-tagged T7 RNA polymerase was purified over a column of Ni-NTA resin according to manufacturer's instructions (Qiagen). The transcription reaction (40 mM Tris (pH 8); 4 mM each of UTP, CTP, GTP, and ATP at pH 7.0; 22 mM MgCl2; 2 mM spermidine; 10 mM DTT; 6 μg pyrophosphatase (Roche Applied Science); 60 m/mL of DNA template, approximately 0.2 mg/mL T7 RNA polymerase) was performed in 10 mL reactions overnight at 37° C. The tRNA was purified on 12% denaturing polyacrylamide gel containing 8 M urea and TBE buffer (90 mM Tris, 90 mM boric acid, 2 mM EDTA). UV shadowing was used to illuminate the pure tRNA band, which was excised and extracted three times with 1M sodium acetate pH 5.3 at 4° C. The tRNA extractions were then ethanol precipitated, dissolved in RNase-free distilled water, pooled, and finally desalted using a Biospin 30 column (BioRad). The tRNA was refolded by heating to 100° C. for 5 min and slow cooling to room temperature. At 65° C., MgCl2 was added to a final concentration of 10 mM to aid folding. A His-tagged CCA adding enzyme was purified over column of Ni-NTA resin according to manufacturer's instructions (Qiagen). 16 μM refolded tRNA in 50 mM Tris (pH 8.0), 20 mM MgCl2, 5 mM DTT, and 50 μM NaPPi was incubated at room temperature for 1 h with approximately 0.2 mg/mL CCA-adding enzyme and 1.6 μCi/μL of (α-^32P)-labeled ATP (PerkinElmer). The sample was phenol/chloroform extracted and then passed over a Bio-spin 30 column (Bio-Rad) to remove excess ATP.
(§3) A 20 μL aminoacylation reaction contained the following components for chPylRS variants: 50 mM HEPES-KOH (pH 7.2), 25 mM KCl, 10 mM MgCl2, 5 mM DTT, 10 mM ATP, 25 μg/mL pyrophosphatase (Roche Applied Science), 10 mM amino acids, 500 nM PylRS variants, 5 μM unlabeled tRNA^Pyl, and 100 nM ^32P-labeled tRNA^Pyl. A 20 μL aminoacylation reaction contained the following components for MjTyrRS variants: 50 mM Tris-HCl (pH 7.5), 1 mM DTT, 10 mM MgCl2, 10 mM ATP, 20 μM unlabeled tRNACUA^Tyr/Opt, 3 μM ^32P-labeled tRNACUA^Tyr/Opt, 2 μM MjTyrRS variants. […]

tRNACUA^Tyr/Opt = assay: Aminoacylation assay of MjTyrRS variants (32P-labeled tRNA, nuclease P1/TLC); format: biochemical; conditions: for Relative catalytic efficiency: relative to p-NFRS with p-NF
Procedure: as §1, §2, §3

[1] = test system: sfGFP(Asn39TAG) expressed in BL21 star DE3 cells; assay: ESI-MS analysis of purified sfGFP(Asn39TAG) for amino acid incorporated; format: cell-based, E. coli
Procedure: Expression of His-tagged sfGFP was performed using the plasmids, cell strains, and antibiotic concentrations described in the methods for sfGFP assays. Saturated overnight cultures were prepared from single colonies of cotransformed cells, which were diluted 1,000-fold into 300 mL of LB media containing 1 mM ncAA where denoted and were grown while shaking at 230 rpm at 37° C. Once the cultures utilizing a pDB070 plasmid grew to a cell density of A600=0.3, AARS expression was induced by supplementing with anhydrotetracycline (ATc) to a final concentration of 200 ng/mL, and incubation was continued. […] Once cultures grew to a cell density of A600=0.5, sfGFP expression was induced by supplementation with a final concentration of 1 mM isopropyl-β-D-thiogalactosidase (IPTG) for cultures utilizing a pET28b(+) plasmid or a final concentration of 1 mM arabinose for cultures utilizing a pBAD plasmid. Incubation with shaking at 37° C. continued for an additional 16 h after induction of sfGFP expression. Cells were harvested by centrifugation at 5,000 g for 10 min at 4° C., and the resulting pellets were resuspended in B-PER II Bacterial Protein Extraction Reagent (Thermo Fisher Scientific) containing EDTA-free protease inhibitor cocktail (Roche). The soluble fraction of the cell lysates were diluted by an equal volume of equilibration buffer (20 mM Tris (pH 7.4), 10 mM imidazole, 300 mM NaCl) and were separately loaded onto a column containing 2 mL of HisPur Ni-NTA resin (Thermo Fisher Scientific) that had been pre-washed with two bed-volumes of equilibration buffer. […]
Purified protein samples were diluted to 10 μM in dialysis buffer lacking reducing agent or glycerol prior to analysis on an Agilent 6220 ESI-TOF mass spectrometer equipped with an Agilent 1260 HPLC. […] Data was analyzed using Agilent MassHunter Qualitative Analysis software (B.06.00, Build 6.0.633.0 with Bioconfirm). […]

B1: chPylRS: chimera of residues 1-149 of MbPylRS and residues 185-454 of MmPylRS; progenitor enzyme (SEQ ID NO: 5) (protein)
chain: MDKKPLDVLISATGLWMSRTGTLHKIKHYEVSRSKIYIEMACGDHLVVNNSRSCRTARAFRHHKYRKTCKRCRVSDEDINNFLTRSTEGKTSVKVKVVSAPKVKKAMPKSVSRAPKPLENPVSAKASTDTSRSVPSPAKSTPNSPVPTSASAPALTKSQTDRLEVLLNPKDEISLNSGKPFRELESELLSRRKKDLQQIYAEERENYLGKLEREITRFFVDRGFLEIKSPILIPLEYIERMGIDNDTELSKQIFRVDKNFCLRPMLAPNLYNYLRKLDRALPDPIKIFEIGPCYRKESDGKEHLEEFTMLNFCQMGSGCTRENLESIITDFLNHLGIDFKIVGDSCMVYGDTLDVMHGDLELSSAVVGPIPLDREWGIDKPWIGAGFGLERLLKVKHDFKNIKRAARSESYYNGISTNL
kcat (tRNA^Pyl; BocK substrate, Table 7): 11.88 ± 0.18 s^−1 × 10^−3 | Km (tRNA^Pyl; BocK substrate, Table 7, read-out: KM^ATP): 2.54 ± 0.16 µM | Km (tRNA^Pyl; BocK substrate, Table 7, read-out: KM^tRNA): 0.26 ± 0.07 µM | kcat (tRNA^Pyl; L-pyrrolysine substrate, Table 8): 33.24 ± 2.74 s^−1 × 10^−3 | Km (tRNA^Pyl; L-pyrrolysine substrate, Table 8, read-out: KM^Pyl): 21.03 ± 0.15 µM | Km (tRNA^Pyl; Table 7, read-out: KM^bocK): 1030 ± 50 µM | Relative catalytic efficiency (tRNA^Pyl; kcat/KM^tRNA relative to chPylRS): 1

B2: p-NFRS: previously evolved MjTyrRS variant charging p-nitro-L-phenylalanine; SEQ ID NO: 18, 22 (protein)
chain: MDEFEMIKRNTSEIISEEELREVLKKDEKSALIGFEPSGKIHLGHYLQIKKMIDLQNAGFDIIILLADLHAYLNQKGELDEIRKIGDYNKKVFEAMGLKAKYVYGSSFQLDKDYTLNVYRLALKTTLKRARRSMELIAREDENPKVAEVIYPIMQVNPLNYEGVDVAVGGMEQRKIHMLARELLPKKVVCIHNPVLTGLDGEGKMSSSKGNFIAVDDSPEEIRAKIKKAYCPAGVVEGNPIMEIAKYFLEYPLTIKRPEKFGGDLTVNSYEELESLFKNKELHPMRLKNAVAEELIKILEPIRKRL
kcat (tRNACUA^Tyr/Opt; amino acid Phe): 0.14 ± 0.003 s^−1 × 10^−3 | Km (tRNACUA^Tyr/Opt; amino acid Phe, read-out: KM^ncAA): 160 ± 30 µM | Relative catalytic efficiency (tRNACUA^Tyr/Opt; amino acid Phe): 2.3 | Km (tRNACUA^Tyr/Opt; ncAA p-IF): 2230 ± 460 µM | kcat (tRNACUA^Tyr/Opt; ncAA p-IF): 0.87 ± 0.11 s^−1 × 10^−3 | Relative catalytic efficiency (tRNACUA^Tyr/Opt; ncAA p-IF): 1.03 | Km (tRNACUA^Tyr/Opt; ncAA p-NF): 3680 ± 290 µM | kcat (tRNACUA^Tyr/Opt; ncAA p-NF): 1.40 ± 0.05 s^−1 × 10^−3 | Relative catalytic efficiency (tRNACUA^Tyr/Opt; ncAA p-NF): 1.00 | charging of p-IF ([1]; LB media, 1 mM p-IF): efficiently charges p-iodo-L-phenylalanine (p-IF) | charging of Phe ([1]; overnight expression in LB media, presence or absence of 1 mM p-NF): efficiently charges Phe

B3: p-IFRS: previously reported MjTyrRS variant evolved to charge p-IF; His160; SEQ ID NO: 19, 23 (protein)
chain: MDEFEMIKRNTSEIISEEELREVLKKDEKSALIGFEPSGKIHLGHYLQIKKMIDLQNAGFDIIILLADLHAYLNQKGELDEIRKIGDYNKKVFEAMGLKAKYVYGSSFQLDKDYTLNVYRLALKTTLKRARRSMELIAREDENPKVAEVIYPIMQVNPLHYEGVDVAVGGMEQRKIHMLARELLPKKVVCIHNPVLTGLDGEGKMSSSKGNFIAVDDSPEEIRAKIKKAYCPAGVVEGNPIMEIAKYFLEYPLTIKRPEKFGGDLTVNSYEELESLFKNKELHPMRLKNAVAEELIKILEPIRKRL
selectivity of incorporation into sfGFP ([1]; LB media supplemented with both 1 mM p-NF and 1 mM p-IF): selectively incorporates p-IF
